Protein stability index data for 67 sequences are collected here from the supplement of paper PMC10724198.

In data set [1] the test system is Saccharomyces cerevisiae. Description: protein stability index of tFT-peptide fusion in deletion strain of DAS1 (PSI (0-1 scale)); higher = more stable (slower turnover). Here is the method:
(§1)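 MPS profiling in S. cerevisiae of two library types built from selected 12-aa C-degron peptides (IN1, IN2, LN1, LN3, VN2, R1-R5, W1-W3, Atg1 and Rpa12 C-termini): saturation mutagenesis libraries and C-terminal +1 capping libraries (13 aa). Each peptide is fused to the C-terminus of a sfGFP-mCherry timer, after a GGGS linker. Cells are FACS-sorted into 8 mCherry/sfGFP bins and sequenced. PSI runs from 0 (unstable) to 1 (stable), measured once in wild type and in the das1Δ or doa10Δ background.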

Data set [2] deals with Saccharomyces cerevisiae. Description: protein stability index of tFT-peptide fusion in wild type (PSI (0-1 scale)); higher = more stable (slower turnover). The following applies: genetic background: wild type. Here is the method: as §1
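Throughout, for protein stability index of tFT-peptide fusion in deletion strain of DAS1: PSI is a weighted mean of each variant's read distribution over the sorted stability bins, computed only for variants having over 10 reads in total.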
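Throughout, for protein stability index of tFT-peptide fusion in wild type: PSI derived as read-weighted mean over the 8 sorting bins, only variants exceeding 10 total reads kept, mCherry placed adjacent to the peptide and sfGFP distal.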

Turning to AKHKKGQKQKIN, the protein stability index was 0.829 in data set [1] and 0.11 in data set [2].

With ARCRVGLWRGAS, the protein stability index amounted to 0.706 in data set [1] and 0.597 in data set [2].

As for ARQRVGLWRGAS, the figures for the protein stability index in data set [1] and in data set [2] were 0.694 and 0.6, respectively.

Regarding ARWEVGLWRGAS, the protein stability index stood at 0.648 in data set [1] and 0.458 in data set [2].

Regarding ARWRCGLWRGAS, the results for the protein stability index in data set [1] and in data set [2] were 0.695 and 0.574, respectively.

Turning to ARWRNGLWRGAS, the figures for the protein stability index in data set [1] and in data set [2] were 0.701 and 0.658, respectively.

ARWRVFLWRGAS: the results for the protein stability index in data set [1] and in data set [2] were 0.674 and 0.432, respectively.

As to ARWRVGEWRGAS, the protein stability index in data set [1] stood at 0.684; in data set [2], 0.677.

Turning to ARWRVGHWRGAS, the protein stability index came out at 0.703 in data set [1] and 0.582 in data set [2].

In the case of ARWRVGLDRGAS, the protein stability index stood at 0.687 in data set [1] and 0.665 in data set [2].

As for ARWRVGLWCGAS, the protein stability index amounted to 0.561 in data set [1] and 0.567 in data set [2].

In the case of ARWRVGLWNGAS, the protein stability index in data set [1] came out at 0.664; in data set [2] it was 0.634.

Take ARWRVGLWRGAL: the protein stability index was found to be 0.682 in data set [1] and 0.596 in data set [2].

Regarding ARWRVGLWRGAN, the protein stability index is 0.687 in data set [1] and 0.121 in data set [2].

ARWRVGLWRGAP: the figures for the protein stability index in data set [1] and in data set [2] were 0.681 and 0.662, respectively.

In the case of ARWRVGLWRGASA, the values for the protein stability index in data set [1] and in data set [2] were 0.672 and 0.665, respectively.

On to ARWRVGLWRGASV, for which the values for the protein stability index in data set [1] and in data set [2] were 0.676 and 0.675, respectively.

As to ARWRVGLWRGAT, the protein stability index came to 0.683 in data set [1] and 0.447 in data set [2].

For the sequence ARWRVGLWRGES, the protein stability index in data set [1] was determined as 0.695; in data set [2], 0.681.

For ARWRVGLWRGGS, the protein stability index in data set [1] is 0.684; in data set [2], 0.672.

In the case of ARWRVGLWRGVS, the figures for the protein stability index in data set [1] and in data set [2] were 0.689 and 0.122, respectively.

Regarding ARWRVGLWRRAS, the protein stability index in data set [1] was found to be 0.673; in data set [2], 0.093.

Turning to ARWRVGLWWGAS, the protein stability index in data set [1] came out at 0.679; in data set [2] it was 0.556.

Take ARWRVHLWRGAS: the protein stability index in data set [1] was found to be 0.695; in data set [2] it was 0.294.

For the sequence ARWRVILWRGAS, the values for the protein stability index in data set [1] and in data set [2] were 0.627 and 0.496, respectively.

As for ARWRYGLWRGAS, the protein stability index was 0.678 in data set [1] and 0.489 in data set [2].

With AWWRVGLWRGAS, the protein stability index in data set [1] is 0.68; in data set [2], 0.504.

Regarding AYWRVGLWRGAS, the protein stability index in data set [1] is 0.699; in data set [2], 0.449.

For the sequence CFSCGYKFRTNN, the results for the protein stability index in data set [1] and in data set [2] were 0.682 and 0.188, respectively.

Turning to CKILRQKMNHQN, the protein stability index worked out at 0.675 in data set [1] and 0.165 in data set [2].

Take CTFCGYKFRTNN: the protein stability index in data set [1] came out at 0.719; in data set [2], 0.253.

Turning to CTSCGYCFRTNN, the protein stability index was 0.7 in data set [1] and 0.261 in data set [2].

Take CTSCGYFFRTNN: the protein stability index in data set [1] was found to be 0.695; in data set [2], 0.222.

Turning to CTSCGYIFRTNN, the protein stability index in data set [1] was 0.706; in data set [2] it was 0.233.

As to CTSCGYKARTNN, the protein stability index in data set [1] came out at 0.686; in data set [2], 0.623.

Take CTSCGYKFRTAN: the results for the protein stability index in data set [1] and in data set [2] were 0.673 and 0.27, respectively.

On to CTSCGYKFRTNC, for which the protein stability index in data set [1] was found to be 0.699; in data set [2] it was 0.224.

Consider CTSCGYKFRTNP, for which the protein stability index in data set [1] is 0.701; in data set [2], 0.689.

Turning to CTSCGYKFWTNN, the protein stability index was 0.75 in data set [1] and 0.299 in data set [2].

As to CTSCGYPFRTNN, the protein stability index in data set [1] came to 0.723; in data set [2] it was 0.677.

For CTSCVYKFRTNN, the values for the protein stability index in data set [1] and in data set [2] were 0.675 and 0.164, respectively.

CTSCWYKFRTNN: the protein stability index in data set [1] is 0.672; in data set [2] it was 0.168.

ESLAASFWRVVG: the results for the protein stability index in data set [1] and in data set [2] were 0.689 and 0.136, respectively.

With FKHKKGQKQKIN, the protein stability index in data set [1] was 0.586; in data set [2], 0.123.

With FSMAWTFRYWVN, the values for the protein stability index in data set [1] and in data set [2] were 0.456 and 0.0458, respectively.

In the case of FSMFWTFRYWVN, the figures for the protein stability index in data set [1] and in data set [2] were 0.403 and 0.0733, respectively.

As to FSMRCTFRYWVN, the protein stability index was determined as 0.522 in data set [1] and 0.0458 in data set [2].

Consider FSMRFTFRYWVN, for which the protein stability index in data set [1] worked out at 0.501; in data set [2], 0.0475.

For the sequence FSMRITFRYWVN, the figures for the protein stability index in data set [1] and in data set [2] were 0.336 and 0.0393, respectively.

FSMRRTFRYWVN: the results for the protein stability index in data set [1] and in data set [2] were 0.616 and 0.102, respectively.

For FSMRWTFAYWVN, the figures for the protein stability index in data set [1] and in data set [2] were 0.39 and 0.047, respectively.

In the case of FSMRWTFRAWVN, the protein stability index in data set [1] is 0.425; in data set [2], 0.104.

As for FSMRWTFRDWVN, the protein stability index in data set [1] is 0.724; in data set [2], 0.595.

As to FSMRWTFRQWVN, the protein stability index in data set [1] came out at 0.427; in data set [2], 0.109.

FSMRWTFRYFVN: the values for the protein stability index in data set [1] and in data set [2] were 0.631 and 0.0378, respectively.

As to FSMRWTFRYGVN, the protein stability index amounted to 0.527 in data set [1] and 0.338 in data set [2].

As to FSMRWTFRYKVN, the results for the protein stability index in data set [1] and in data set [2] were 0.691 and 0.0899, respectively.

With FSMRWTFTYWVN, the protein stability index in data set [1] is 0.389; in data set [2], 0.0917.

For the sequence FSMRWTMRYWVN, the protein stability index amounted to 0.482 in data set [1] and 0.0449 in data set [2].

As for FSMRWTSRYWVN, the protein stability index was determined as 0.598 in data set [1] and 0.105 in data set [2].

As to FSMRWTTRYWVN, the protein stability index in data set [1] amounted to 0.566; in data set [2], 0.0528.

As to FSMRYTFRYWVN, the protein stability index in data set [1] stood at 0.648; in data set [2], 0.0639.

For FSRRWTFRYWVN, the values for the protein stability index in data set [1] and in data set [2] were 0.636 and 0.0509, respectively.

With GDKRNHLIKLLN, the protein stability index turned out to be 0.613 in data set [1] and 0.158 in data set [2].

GSMRWTFRYWVN: the protein stability index in data set [1] was determined as 0.677; in data set [2] it was 0.0781.

On to HLIQPLPVQFLN, for which the protein stability index in data set [1] was 0.713; in data set [2], 0.13.

On to IDKRNHLIKLLN, for which the figures for the protein stability index in data set [1] and in data set [2] were 0.584 and 0.143, respectively.
